In this assay the target is T1, BRD4 ET domain (residues M610-R676) (human, UniProt O60885 610-676, uniformly 15N-labelled for the NMR titrations).
T1 construct: human BRD4, extraterminal (ET) domain, residues 610-676; also called extraterminal (ET) domain of BRD4; source: E. coli BL21-CodonPlus (pRIL), purified (HiTrap IMAC, Superdex)
The assay is described as follows: ITC; MicroCal auto-ITC200, 20 °C, PBS pH 7.4 with 0.5 mM dithiothreitol; protein (0.5 mM) in the cell, peptide (7.5 mM) in the syringe; one set of sites model. The note with it: both partners purified. (ITC needs no label: the signal is the heat of the interaction.)

B1: JMJD6 peptide W85A (peptide, UniProt Q6NYC1 84-96, looked up)
peptide: KATLERLKRKYRN
notes: JMJD6 residues 84-96 with W85A; also called W85A peptide
As for B1, the Kd (in general, the equilibrium constant for the complex coming apart) turned out to be 675 ± 66 µM.

Values taken from paper PMC5701133 (Scientific Reports, 2017).
